How the values were obtained:
[1] = In vitro modification assay with refolded or membrane-localized PagL (Tricine-SDS-PAGE); type: biochemical; details: purified N. meningitidis LPS
Experimental: Refolded PagL(Pa)(−) (10 mg/ml) or cell envelopes isolated from E. coli BL21 Star™ (DE3) containing the empty vector pET-11a or the pPagL plasmids were diluted 10 fold in double distilled water. 4 μl of the diluted refolded protein or cell envelope solution was incubated in 50 mM Hepes (pH 8.0), 0.1% Triton X-100, 0.5 M NaCl, and 0.75 nmol N. meningitidis L3-LPS in a final volume of 10 μl at 37° C. for 16 h. To test whether the reaction was dependent on divalent cations, 5 mM EDTA was added into the reaction with the refolded PagL(Pa)(−). The reactions were terminated by boiling in sample buffer (28), after which the samples were treated with 0.5 mg/ml proteinase K for 1 hour at 55° C., followed by 10 min incubation at 95° C. The samples were diluted 25 fold by adding sample buffer, after which 2 μl of the samples were analysed by Tricine-SDS-PAGE (see above).

[2] = system: E. coli LPS; experiment: In vivo modification of E. coli LPS by PagL expressed in E. coli BL21 Star (DE3) (Tricine-SDS-PAGE, GC/MS, ESI-MS); type: cell-based; details: GC/MS and ESI-MS data
Experimental: To LPS-containing samples 0.5 mg/ml proteinase K (end concentration) was added to the sample buffer (28). The samples were incubated for 60 min at 55° C., followed by 10 min at 95° C. to inactivate proteinase K. The samples was then diluted 10 fold by adding sample buffer, after which 2 μl of the sample were applied to a Tricine-SDS-PAGE gel (30). The bromophenol blue was allowed to run into the separating gel at 35 V, after which the voltage was increased to 105 V. After the front reached the bottom of the gel, the samples were left running for another 45 min. The gels were fixed overnight in water/ethanol/acetic acid 11:8:1 (v/v/v) and subsequently stained with silver as described (31).
LPS was isolated using the hot phenol/water extraction method (3). […]
To study whether the cloned PagL homologs were active on E. coli LPS, IPTG was added to exponentially growing E. coli BL21 Star™ (DE3) cells containing the empty vector pET-11a or the pPagL plasmids, and after various incubation periods, samples equivalent to one OD600 unit were collected and their LPS content was analyzed by Tricine-SDS-PAGE. […]
Structural Analysis of PagL-Modified LPS: to determine its fatty acid content, LPS was isolated from bacteria that were grown in the presence of 10 mM MgCl2 to suppress PhoP/PhoQ-regulated modifications of lipid A and analyzed by GC/MS. […]

[3] = system: B. pertussis LPS; experiment: Expression of PagL and PagP in B. pertussis strain Tohama, lipid A analysed by ESI-MS and Tricine-SDS-PAGE; type: cell-based; details: for relative abundance of lipid A molecular ions: palmitoylate: Table III total of palmitoylated species
Experimental: LPS was isolated using the hot phenol/water extraction method (Westphal and Jann, Methods Carbohydr. Chem. 5; 83-91, 1965) with slight modifications. In short, bacteria were grown in THIJS medium in the presence of 1 mM IPTG (end concentration) for 64 h. Cells were harvested by centrifugation and resuspended in 40 mM sodium phosphate buffer (pH 7.0) containing 5 mM EDTA. The cells were treated overnight with lysozyme at 4° C., after which an equal volume of phenol was added. The suspension was heated to 70° C., incubated for 30 min while shaking, and subsequently cooled to 10° C., after which phases were separated by centrifugation for 10 min at 8,000×g. The upper phase was collected and the extraction was repeated after adding an equal volume of distilled water to the lower phase. The two upper phases were combined, dialysed against tap water until the phenol odour disappeared, freeze-dried, and subsequently taken up in distilled water. The LPS was subsequently pelleted by centrifugation for 3 h at 150,000×g and dissolved in distilled water, after which the LPS concentration was determined by analysing the 3-hydroxytetradecanoic acid content, using a 6890 Agilent gas chromatograph, as described (Welch, Clin. Microbiol. Rev. 1991). For ESI-MS, a 200 μl aliquot of isolated LPS (50 nmol/ml) was freeze-dried and taken up in 0.1 ml 2% acetic acid. The mixture was heated for 2 h at 95° C. to hydrolyse the LPS and release the lipid A moiety. Subsequently, the mixture was cooled to room temperature and centrifuged for 10 min at 16,100×g. The pellet was washed twice in 0.1 ml double-distilled water, taken up in 0.1 ml double-distilled water, and 0.3 ml chloroform/methanol (2:1, v/v) was added. After vigorous vortexing, phases were separated by centrifugation for 10 min at 16,100×g. The […] phase was then used for structural analysis of purified lipid A by nanoelectrospray tandem MS on a Finnigan LCQ in the negative ion mode (Wilm and Mann, Anal. Chem. 1996).
To express PagP and PagL in B. pertussis strain Tohama, the pagL gene of B. bronchiseptica (pagL(Bb)) and the pagP gene of B. pertussis (pagP(Bp)) were expressed from the broad-host range low-copy number expression vector pMMB67EH. As a control, a strain expressing the pagP gene of E. coli (pagP(Ec)) was also constructed. LPS was isolated from wild-type, PagP-expressing, or PagL-expressing B. pertussis strain Tohama and analysed by Tricine-SDS-PAGE. LPS isolated from the PagL(Bb)-expressing strain appeared unaffected on the gel, whereas that from the PagP-expressing appeared potentially modified, since a band with a lower electrophoretic mobility than that of wild-type B. pertussis LPS was detected (FIG. 14). Furthermore, as compared to the PagP(Bp)-expressing strain, the modification-efficiency appeared higher in the PagP(Ec)-expressing strain (FIG. 14). To evaluate the possible LPS modifications in further detail, the lipid A moieties of the strains were analysed by ESI-MS in the negative-ion mode. […] The peak at m/z 1557 represents the characteristic penta-acylated bis-phosphate species that is typically found in B. pertussis (Caroff et al., Microbes. Infect., 1994), whereas the peak at m/z 1477 corresponds to a penta-acylated mono-phosphate species. The two remaining peaks at m/z 1307 and 1251 represent deacylated lipid A species of the molecular ion at m/z 1477, which miss the primary 3-hydroxydecanoic acid residue at the 3 position or a primary 3-hydroxytetradecanoic acid residue (either at the 2 or the 3′ position), respectively. […] Furthermore, the large majority of lipid A species are mono-phosphate forms (˜80%). […]

[4] = B. pertussis strain Tohama, ESI-MS

B1: PagL(Pa)(−): P. aeruginosa PagL without its signal sequence, refolded in vitro from inclusion bodies and purified (protein, UniProt Q9HVD1 24-173, looked up)
Lipid A deacylase PagL: ADVSAAVGATGQSGMTYRLGLSWDWDKSWWQTSTGRLTGYWDAGYTYWEGGDEGAGKHSLSFAPVFVYEFAGDSIKPFIEAGIGVAAFSGTRVGDQNLGSSLNFEDRIGAGLKFANGQSVGVRAIHYSNAGLKQPNDGIESYSLFYKIPI
**Q.** Which results are given for B1?
**A.** in vitro deacylation of LPS in the presence of EDTA ([1]; 5 mM EDTA, FIG. 13B): deacylation of LPS was still observed; in vitro modification of externally added LPS ([1]; 37° C., detergent-containing buffer, FIG. 13): converted into a form with a higher electrophoretic mobility

B2: PagL(Bb): lipid A 3-O-deacylase PagL of B. bronchiseptica, SEQ ID No. 1 (protein, listed as Bordetella sp.)
chain: MQFLKKNKPLFGIVTLALACATAQAQPTQGGVSLHYGIGDHYQRVTLNYETPTLWSHQFGGNWGRLDLTPELGASYWWADGSRSPGHVWQASAIPMFRWWTGERFYIEAGIGATVFSSTSFADKRIGSAFQFGDHIGLGFLLTPSNRIGLRYSHFSNAGIKEPNPGLDIVQLTYTYQF
**Q.** Which “lipid A deacylase activity” value [2] does the source give for B2 here?
**A.** active lipid A deacylases

**Q.** What about the “relative content of lipid A species that miss the 3-hydroxydecanoic acid residue at their 3 position” value ([3]; B. pertussis strain Tohama, ESI-MS peak heights) of the same molecule?
**A.** more than 92%

**Q.** What about the “relative abundance of lipid A molecular ions: palmitoylate” value [3, 4] of the same molecule?
**A.** 0.0

**Q.** And the “lipid A 3-O-deacylase activity in B. pertussis” value ([3]; B. pertussis strain Tohama, pMMB67EH expression, ESI-MS)?
**A.** active in B. pertussis

B3: PagP(Ec): palmitoyl transferase PagP of E. coli, expressed in B. pertussis as a control (protein, UniProt P37001 26-186, looked up)
Lipid A palmitoyltransferase …: NADEWMTTFRENIAQTWQQPEHYDLYIPAITWHARFAYDKEKTDRYNERPWGGGFGLSRWDEKGNWHGLYAMAFKDSWNKWEPIAGYGWESTWRPLADENFHLGLGFTAGVTARDNWNYIPLPVLLPLASVGYGPVTFQMTYIPGTYNNGNVYFAWMRFQF
**Q.** For B3, which “share of the total lipid A population palmitoylated” value ([3]; B. pertussis strain Tohama expressing PagP, ESI-MS) is on record?
**A.** ~47%

**Q.** And the “relative abundance of lipid A molecular ions: palmitoylate” value [3, 4]?
**A.** 46.5

**Q.** And the modification-efficiency ([3]; Tricine-SDS-PAGE of B. pertussis LPS, compared to the PagP(Bp)-expressing strain, FIG. 14)?
**A.** higher

B4: PagL(Pa): PagL homolog (lipid A 3-O-deacylase) of P. aeruginosa, SEQ ID No:6 (protein, listed as Pseudomonas aeruginosa)
chain: MKKLLPLAVLAALSSVHVASAQAADVSAAVGATGQSGMTYRLGLSWDWDKSWWQTSTGRLTGYWDAGYTYWEGGDEGAGKHSLSFAPVFVYEFAGDSIKPFIEAGIGVAAFSGTRVGDQNLGSSLNFEDRIGAGLKFANGQSVGVRAIHYSNAGLKQPNDGIESYSLFYKIPI
**Q.** Which “lipid A deacylase activity” value [2] does the source give for B4 here?
**A.** active lipid A deacylases

Reference: patent US8048433B2, “Deacylation of LPS in gram negative bacteria” (priority 2004, dated 2011)
